Test results taken from patent US20250215089A1.

What was measured:
[1] = molecular target: human CD40 (human) (UniProt P25942); experiment: FACS, Raji cells
[2] = molecular target: human PD-L1 (human) (UniProt Q9NZQ7); experiment: cell-based or functional assay
[3] = molecular target: human PD-L1 (human) (UniProt Q9NZQ7); experiment: FACS, NCI-H226 cells
[4] = molecular target: cynomolgus monkey PD-L1 (cynomolgus monkey); experiment: FACS, CHO-K1/cyPD-L1 cells
[5] = molecular target: cynomolgus monkey CD40 (cynomolgus monkey); experiment: FACS, CHO-K1/cyCD40 cells
[6] = molecular target: human PD-L1 (human) (UniProt Q9NZQ7); experiment: FACS, CHO-K1/hPD-L1 cells
[7] = molecular target: human CD40 (human) (UniProt P25942); experiment: FACS, CHO-K1/hCD40 cells

Sequence of human PD-L1 (human) (Q9NZQ7 19-290): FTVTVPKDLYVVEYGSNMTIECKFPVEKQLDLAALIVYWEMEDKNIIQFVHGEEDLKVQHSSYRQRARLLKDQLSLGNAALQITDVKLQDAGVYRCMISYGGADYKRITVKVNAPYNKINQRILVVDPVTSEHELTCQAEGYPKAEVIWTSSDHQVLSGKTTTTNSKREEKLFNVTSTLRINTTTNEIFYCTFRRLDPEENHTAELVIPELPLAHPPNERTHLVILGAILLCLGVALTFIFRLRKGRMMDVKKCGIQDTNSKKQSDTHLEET
Sequence of human CD40 (human) (P25942 21-277): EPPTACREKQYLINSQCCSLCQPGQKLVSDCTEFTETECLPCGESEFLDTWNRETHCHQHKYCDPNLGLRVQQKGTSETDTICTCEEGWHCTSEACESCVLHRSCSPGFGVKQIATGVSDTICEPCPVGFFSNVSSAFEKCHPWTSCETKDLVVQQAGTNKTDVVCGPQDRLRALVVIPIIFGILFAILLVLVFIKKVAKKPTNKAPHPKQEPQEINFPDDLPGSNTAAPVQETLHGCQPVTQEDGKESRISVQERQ

| Substance | Maximum MFI [1] [MFI] | Maximum RLU, Jurkat-NFAT-hPD1 reporter [2] [RLU] | Maximum MFI [3] [MFI] | Maximum MFI [4] [MFI] | Maximum MFI [5] [MFI] | Maximum MFI [6] [MFI] | Maximum MFI [7] [MFI] |
| --- | --- | --- | --- | --- | --- | --- | --- |
| Isotype (antibody) | 78 | 403 | 55 | 50 | 59 | 170 | 23 |
| hIgG1 (antibody) | – | 2370 | – | – | – | 86 | – |
